B1: Mitogen-activated protein kinase kinase kinase 3 (Homo sapiens), Q99759 (parent)
chain: MDEQEALNSIMNDLVALQMNRRHRMPGYETMKNKDTGHSNRQSDVRIKFEHNGERRIIAFSRPVKYEDVEHKVTTVFGQPLDLHYMNNELSILLKNQDDLDKAIDILDRSSSMKSLRILLLSQDRNHNSSSPHSGVSRQVRIKASQSAGDINTIYQPPEPRSRHLSVSSQNPGRSSPPPGYVPERQQHIARQGSYTSINSEGEFIPETSEQCMLDPLSSAENSLSGSCQSLDRSADSPSFRKSRMSRAQSFPDNRQEYSDRETQLYDKGVKGGTYPRRYHVSVHHKDYSDGRRTFPRIRRHQGNLFTLVPSSRSLSTNGENMGLAVQYLDPRGRLRSADSENALSVQERNVPTKSPSAPINWRRGKLLGQGAFGRVYLCYDVDTGRELASKQVQFDPDSPETSKEVSALECEIQLLKNLQHERIVQYYGCLRDRAEKTLTIFMEYMPGGSVKDQLKAYGALTESVTRKYTRQILEGMSYLHSNMIVHRDIKGANILRDSAGNVKLGDFGASKRLQTICMSGTGMRSVTGTPYWMSPEVISGEGYGRKADVWSLGCTVVEMLTEKPPWAEYEAMAAIFKIATQPTNPQLPSHISEHGRDFLRRIFVEARQRPSAEELLTHHFAQLMY

Variants of: B1
Details: with CCM2, Q9BSQ5-1
Chain of CCM2, Q9BSQ5-1 (Q9BSQ5 whole entry): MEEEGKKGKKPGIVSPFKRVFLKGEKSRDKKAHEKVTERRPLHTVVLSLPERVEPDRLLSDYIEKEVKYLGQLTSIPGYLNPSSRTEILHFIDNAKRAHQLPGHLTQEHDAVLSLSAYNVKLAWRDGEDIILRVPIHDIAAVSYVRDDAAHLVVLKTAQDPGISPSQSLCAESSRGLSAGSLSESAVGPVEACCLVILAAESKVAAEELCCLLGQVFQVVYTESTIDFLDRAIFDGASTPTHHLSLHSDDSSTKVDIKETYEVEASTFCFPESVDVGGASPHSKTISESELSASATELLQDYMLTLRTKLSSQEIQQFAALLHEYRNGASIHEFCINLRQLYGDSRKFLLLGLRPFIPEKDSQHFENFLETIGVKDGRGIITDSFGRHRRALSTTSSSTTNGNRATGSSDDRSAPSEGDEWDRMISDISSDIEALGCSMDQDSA

Which “effect of a mutation on the interaction” value does the source give for I10D here?
Its value is “disrupting interaction strength”.

For L7D, which “effect of a mutation on the interaction” value is on record?
The value was “disrupting interaction strength”.

Which “effect of a mutation on the interaction” value does the source give for L14D here?
Its value is “disrupting interaction strength”.

L17D was tested. Which “effect of a mutation on the interaction” value did it give?
The value was “disrupting interaction strength”.

— IntAct's records for PubMed 25982527
